T1: cyclin A1 (CCNA1), isoform 3 (SEQ ID NO:4) peptide on HLA-A*02:01 (human)
T1 peptide: YSLSEIVPCL

T2: cyclin A1 (CCNA1), isoform 3 (SEQ ID NO:4) peptide on HLA-A*02:01 (human)
T2 peptide: SLIAAAAFCLA

T3: cyclin A1 (CCNA1), isoform 3 (SEQ ID NO:4) peptide on HLA-A*02:01 (human)
T3 peptide: FLDRFLSCM


What was measured:
Test in all cases: multimer staining
[1] = biological target: T1, cyclin A1 (CCNA1), isoform 3 (SEQ ID …)
[2] = biological target: T2, cyclin A1 (CCNA1), isoform 3 (SEQ ID …)
[3] = biological target: T3, cyclin A1 (CCNA1), isoform 3 (SEQ ID …)

binding result [3] | Binder | further results
– | TCR #8 (TCR, V domains shown) Valpha: AQKVTQAQTEISVVEKEDVTLDCVYETRDTTYYLFWYKQPPSGELVFLIRRNSFDEQNEISGRYSWNFQKSTSSFNFTITASQVVDSAVYFCALSELASGGSYIPTFGRGTSLIVHP Vbeta: DAGVTQSPTHLIKTRGQQVTLRCSPKSGHDTVSWYQQALGQGPQFIFQYYEEEERQRGNFPDRFSGHQFPNYSSELNVNALLLGDSALYLCASSFRLAGGPSTDTQYFGPGTRLTVL | binding result [1]: recognises
– | TCR #7 (TCR, V domains shown) Valpha: ILNVEQSPQSLHVQEGDSTNFTCSFPSSNFYALHWYRWETAKSPEALFVMTLNGDEKKKGRISATLNTKEGYSYLYIKGSQPEDSATYLCAYLGAGNQFYFGTGTSLTVIP Vbeta: DGGITQSPKYLFRKEGQNVTLSCEQNLNHDAMYWYRQDPGQGLRLIYYSQIVNDFQKGDIAEGYSVSREKKESFPLTVTSAQKNPTAFYLCASSLNRGRYGYTFGSGTRLTVV | binding result [2]: recognises
recognises | TCR #3 (TCR, V domains shown) Valpha: QKEVEQNSGPLSVPEGAIASLNCTYSDRGSQSFFWYRQYSGKSPELIMSIYSNGDKEDGRFTAQLNKASQYVSLLIRDSQPSDSATYLCAVDSGGYQKVTFGTGTKLQVIP Vbeta: GAGVSQTPSNKVTEKGKYVELRCDPISGHTALYWYRQSLGQGPEFLIYFQGTGAADDSGLPNDRFFAVRPEGSVSTLKIQRTERGDSAVYLCASSLNMNTEAFFGQGTRLTVV | –
recognises | TCR #4 (TCR, V domains shown) Valpha: SQQGEEDPQALSIQEGENATMNCSYKTSINNLQWYRQNSGRGLVHLILIRSNEREKHSGRLRVTLDTSKKSSSLLITASRAADTASYFCATDAWESNFGNEKLTFGTGTRLTIIP Vbeta: GAGVSQSPSNKVTEKGKDVELRCDPISGHTALYWYRQSLGQGLEFLIYFQGNSAPDKSGLPSDRFSAERTGGSVSTLTIQRTQQEDSAVYLCASSLVVGSYEQYFGPGTRLTVT | –
